In US20230287145A1 (Hoffmann-La Roche, published 2023):

Experiments:
[1] = target: T1, Human CD3ε stalk-Fc(knob)-Avi/CD3δ stalk-Fc(hole) (human); test: SPR, biotinylated human CD3ε/δ on SA chip, monovalent IgG; response normalised to anti-huIgG capture and referenced to the unstressed sample; after 2 weeks at pH 6.0/40 °C
T1 construct: Heterodimeric Fc fusion; also called human CD3ε/δ; Human CD3 epsilon stalk-Fc(knob)-Avi
Protocol: (§1) All SPR experiments were performed on a Biacore T200 instrument (GE Healthcare) at 25° C. with HBS-P+ (10 mM HEPES, 150 mM NaCl pH 7.4, 0.05% Surfactant P20) as running and dilution buffer. Biotinylated human CD3ε/δ (see Example 3, SEQ ID NOs 41 and 42) as well as biotinylated anti-huIgG (Capture Select, Thermo Scientific, #7103262100) were immobilized on a Series S Sensor Chip SA (GE Healthcare, #29104992), resulting in surface densities of at least 1000 resonance units (RU). Anti-CD3 antibodies with a concentration of 2 μg/ml were injected for 30 s at a flow rate of 5 μl/min, and dissociation was monitored for 120 s. The surface was regenerated by injecting 10 mM glycine pH 1.5 for 60 s. Bulk refractive index differences were corrected by subtracting blank injections and by subtracting the response obtained from a blank control flow cell. For evaluation, the binding response 5 seconds after injection end was taken. To normalize the binding signal, the CD3 binding was divided by the anti-huIgG response (the signal (RU) obtained upon capture of the CD3 antibody on the immobilized anti-huIgG antibody). The relative binding activity was calculated by referencing each temperature stressed sample to the corresponding, non-stressed sample.

[2] = target: T1, Human CD3ε stalk-Fc(knob)-Avi/CD3δ …; test: SPR, Biacore T200, 25 °C; monovalent IgG captured by anti-PG antibody on C1 chip, CD3ε/δ-Fc as analyte; triplicates; footnote: values may not be fully reliable, bad fit quality
Protocol: (§2) Kinetic constants were derived using the Biacore T200 Evaluation Software (GE Healthcare Life Sciences), to fit rate equations for 1:1 Langmuir binding by numerical integration. The half-life (t_{1/2}) of the interaction was calculated using the formula t_{1/2}=ln 2/koff.
(§3) To analyze the interaction to CD3, IgG molecules were captured for 240 s at 50 nM with a flow rate of 5 μl/min. Human and cynomolgus CD3ε stalk-Fc(knob)-Avi/CD3δ-stalk-Fc(hole) were passed at a concentration of 0.061-250 nM with a flow rate of 30 μl/min through the flow cells for 300 s. The dissociation was monitored for 800 s.

[3] = target: T2, Cynomolgus CD3ε stalk-Fc(knob)-Avi/CD3δ stalk-Fc(hole) (cynomolgus); test: as above
T2 construct: Heterodimeric Fc fusion; also called cynomolgus CD3ε/δ
T2 sequence (chain, as listed by the source mutant limits assumed, chain 1 of 2): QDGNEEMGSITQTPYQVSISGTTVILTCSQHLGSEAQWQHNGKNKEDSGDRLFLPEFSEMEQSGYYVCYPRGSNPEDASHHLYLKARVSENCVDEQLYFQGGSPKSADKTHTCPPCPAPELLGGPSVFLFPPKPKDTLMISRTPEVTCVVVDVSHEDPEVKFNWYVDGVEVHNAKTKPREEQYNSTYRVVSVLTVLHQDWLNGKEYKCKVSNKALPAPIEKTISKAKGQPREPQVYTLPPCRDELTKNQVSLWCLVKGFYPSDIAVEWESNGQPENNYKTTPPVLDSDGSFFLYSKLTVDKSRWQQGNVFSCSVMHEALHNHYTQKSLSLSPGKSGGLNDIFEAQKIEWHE
T2 sequence (chain, as listed by the source mutant limits assumed, chain 2 of 2): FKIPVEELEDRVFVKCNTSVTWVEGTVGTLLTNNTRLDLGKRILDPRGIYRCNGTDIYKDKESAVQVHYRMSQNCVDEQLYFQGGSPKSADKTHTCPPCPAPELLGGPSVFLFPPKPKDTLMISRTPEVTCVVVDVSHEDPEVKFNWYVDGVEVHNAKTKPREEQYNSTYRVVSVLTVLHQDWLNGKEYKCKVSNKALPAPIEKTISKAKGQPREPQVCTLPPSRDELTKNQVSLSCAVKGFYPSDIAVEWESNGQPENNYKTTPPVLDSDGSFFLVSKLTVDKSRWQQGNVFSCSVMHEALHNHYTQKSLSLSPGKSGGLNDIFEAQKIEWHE
Protocol: as §2, §3

[4] = target: T1, Human CD3ε stalk-Fc(knob)-Avi/CD3δ …; test: SPR, biotinylated human CD3ε/δ on SA chip, monovalent IgG; response normalised to anti-huIgG capture and referenced to the unstressed sample; after 2 weeks at pH 7.4/37 °C
Protocol: as §1

[5] = target: T1, Human CD3ε stalk-Fc(knob)-Avi/CD3δ …; test: SPR, Biacore T200, 25 °C; monovalent IgG captured by anti-PG antibody on C1 chip, CD3ε/δ-Fc as analyte; 1:1 Langmuir fit; triplicates; footnote: values may not be fully reliable, bad fit quality
Protocol: as §2, §3

[6] = target: T2, Cynomolgus CD3ε stalk-Fc(knob)-Avi/CD3δ …; test: as above
Protocol: as §2, §3

B1: Anti-CD3 antibody clone P004.042 in monovalent human IgG1 format (antibody, V domains shown)
VH: EVQLLESGGGLVQPGGSLRLSCAASGFQFDNYAMNWVRQAPGKGLEWVSRIRTKYNEYATYYADSVKGRFTISRDDSKNTLYLQMNSLRAEDTAVYYCVRASNFPQSYVSYFGYWGQGTLVTVSS
VL: QAVVTQEPSLTVSPGGTVTLTCGSSTGAVTTSNYANWVQEKPGQAFRGLIGGTNKRAPGTPARFSGSLLGGKAALTLSGAQPEDEAEYYCALWYSNLWVFGGGTKLTVL
notes: Monovalent human IgG1 with crossed VH and VL domains; knob-into-hole; P329G L234A L235A; also called P004.042 (monovalent IgG)
- binding activity [%] [1]: 101%
- t1/2 [2]: 1.36 min
- t1/2 [3]: 1.43 min
- binding activity [%] [4]: 98%
- Kd [5]: 1.36 nM
- koff [5]: 0.00852 s⁻¹
- kon [5]: 6.28e+06 M⁻¹ s⁻¹
- Kd [6]: 0.439 nM
- koff [6]: 0.00809 s⁻¹
- kon [6]: 1.85e+07 M⁻¹ s⁻¹
